Measurements reported in patent US11433139B2, “Peptide vaccines against interleukin-31” (Zoetis Services LLC, priority 2018, dated 2022).
Where no end group is shown, it is not given here.

Assays:
full length feline IL-31 = experiment: Cat serology study, serum titers by indirect ELISA to feline IL-31; format: in vivo; settings: laboratory cats, 10 μg/dose s.c. days 0, 28, 56, Bay R1005 and CpG adjuvant mixture
Experimental: 2.9. Serum titers to IL-31 following immunization of laboratory cats with IL-31 feline and equine mimotopes and full length feline IL-31 protein A serology study was performed using laboratory cats like the study design described herein in section 2.3 however in this study feline and equine mimotopes were compared. Laboratory cats were subcutaneously administered the conjugated IL-31 mimotopes adjuvanted with a mixture including the glycolipid adjuvant Bay R1005 (N-(2-Deoxy-2-L-leucylamino-β-D-glucopyranosyl)-N-octadecyldodecanoylamidehydroacetate) as well as CpG oligonucleotides. A control group was included containing CRM-197 conjugated feline IL-31 (SEQ ID NO: 157; Feline_IL31_wildtype), the corresponding nucleotide sequence for which is (SEQ ID NO: 158; Feline_IL-31_wildtype) in an adjuvant mixture including the glycolipid adjuvant Bay R1005 (N-(2-Deoxy-2-L-leucylamino-β-D-glucopyranosyl)-N-octadecyldodecanoylamidehydroacetate) as well as CpG oligonucleotides. (T01). 10 μg/dose of each adjuvanted mimotope or control was administered subcutaneously on days 0, 28, and 56 (0.5 ml of a 20 μg/ml solution). Blood for serum was taken on day −14, 0 (pre-dose), 28 (pre-dose), 42, 56 (pre-dose), 70, and 84. In addition, on days 35 and 63, approximately 40 mls of blood was collected from each animal into lithium heparin tubes and processed for PBMC isolation using a standard method. […]

mAb ZTS-361 = experiment: Peptide block of mAb ZTS-361 inhibition of IL-31 mediated STAT3 phosphorylation in feline FCWF-4 macrophages; format: cell-based
full length canine IL-31 = experiment: Dog immunogenicity study, serum titers by indirect ELISA to canine IL-31; format: in vivo; settings: beagle dogs, 10 μg/dose s.c. days 0, 28, 56, ZA-01 adjuvant; maximum dilution 1:50,000
Description: (§1) An immunogenicity study was undertaken to assess the ability of CRM-197-conjugated IL-31 15H05 mimotopes to generate an epitope-specific immune response driven towards the relevant region on the IL-31 protein where antibody 15H05 binds and neutralizes the cytokines ability to activate the IL-31Ra:OSMR co-receptor. The study design is depicted in FIG. 14. Purebred male beagle dogs were subcutaneously administered the conjugated IL-31_15H05 mimotopes adjuvanted with ZA-01. […] Control groups were included containing ZA-01 adjuvant CRM-197 alone (T01) and CRM-197 conjugated feline IL-31 (SEQ ID NO: 159; Feline_IL-31_E_coli), the corresponding nucleotide sequence for which is (SEQ ID NO: 160; Feline_IL-31_E_coli) in ZA-01 (T02). 10 μg/dose of each adjuvanted mimotope or control was administered subcutaneously on days 0, 28, and 56 (0.5 ml of a 20 μg/ml solution). Blood for serum was taken on day 0 (pre-dose), 7, 12, 28 (pre-dose) 35, 42, 49, 56 (pre-dose), 63, 70, 77, and 84. In addition, on days 35 and 84, approximately 40 mls of blood was collected from each animal into lithium heparin tubes and processed for PBMC isolation using a standard method. […]
(§2) Serum titers from each study day indicated in section 2.3 above were assessed for each animal. Titers were determined using an indirect ELISA where a full length IL-31 protein was used as the capture material for each respective assay. […]

full length equine IL-31 = experiment: Dog immunogenicity study, serum titers by indirect ELISA to equine IL-31; format: in vivo; settings: beagle dogs, 10 μg/dose s.c. days 0, 28, 56, ZA-01 adjuvant
Description: as §1, §2

full length human IL-31 = experiment: Dog immunogenicity study, serum titers by indirect ELISA to human IL-31; format: in vivo, canine; settings: beagle dogs, 10 μg/dose s.c. days 0, 28, 56, ZA-01 adjuvant
Description: as §1, §2

[1] = system: full length feline IL-31 protein; experiment: Dog immunogenicity study, serum titers by indirect ELISA to feline IL-31; format: in vivo, canine; settings: beagle dogs, 10 μg/dose s.c. days 0, 28, 56, ZA-01 adjuvant; maximum dilution 1:50,000
Description: as §1, §2

[2] = Stability of cIL-31 following dialysis into PBS; format: physicochemical
Description: The Interleukin 31 protein varies in amino acid sequence conservation among homologous species (FIGS. 1A and 1B) but is believed to have common structural architecture with other members of the type I cytokine family (Boulay et al. 2003, Immunity. August; 19(2):159-632003; Dillon et al. 2004 Nat Immunol. July; 5(7):752-60). This up-down bundle topology is significant to the mode of receptor recognition shared by these cytokines (Dillon et al. supra, Cornelissen et al. 2012 Eur J Cell Biol. June-July; 91(6-7):552-66). With variation in IL-31 protein sequence identities between different species, it is not possible to predict if antibodies raised against one species will cross-react with others given different epitope propensities and local amino acid compositions. As a consequence, multiple forms of IL-31 protein were considered for this work representing multiple species and expression systems. The canine IL-31 protein (cIL-31) was produced to use as an immunogen and a reagent to test affinity and potency of antibody hits. […] Protein concentration was determined using a bicinchoninic assay (BCA assay) with Bovine Serum Albumin (BSA) as a standard (ThermoFisher Scientific, Inc., Rockford, Ill.). […]

[3] = Pharmacokinetic profile of canine IL-31 in dogs; format: in vivo, dog; settings: subcutaneous dose of 1.75 μg/kg, within the first hour
Experimental: A recent study was performed to determine serum IL-31 levels in cats with a presumptive diagnosis of allergic dermatitis (AD) from several different geographic regions in the USA. […] To understand the levels of canine IL-31 in a previous model development study, the pharmacokinetic profile of canine IL-31 was analyzed in dogs following administration of a subcutaneous dose of 1.75 μg/kg. […] Based on these findings it is reasonable to believe that an intravenous dose of 0.5 μg/kg feline IL-31 used in this feline model will result in a circulating amount that is far excessive to that observed in the naturally occurring disease state for dogs and cats.

mAb ZTS-361, sequence (as listed by the source): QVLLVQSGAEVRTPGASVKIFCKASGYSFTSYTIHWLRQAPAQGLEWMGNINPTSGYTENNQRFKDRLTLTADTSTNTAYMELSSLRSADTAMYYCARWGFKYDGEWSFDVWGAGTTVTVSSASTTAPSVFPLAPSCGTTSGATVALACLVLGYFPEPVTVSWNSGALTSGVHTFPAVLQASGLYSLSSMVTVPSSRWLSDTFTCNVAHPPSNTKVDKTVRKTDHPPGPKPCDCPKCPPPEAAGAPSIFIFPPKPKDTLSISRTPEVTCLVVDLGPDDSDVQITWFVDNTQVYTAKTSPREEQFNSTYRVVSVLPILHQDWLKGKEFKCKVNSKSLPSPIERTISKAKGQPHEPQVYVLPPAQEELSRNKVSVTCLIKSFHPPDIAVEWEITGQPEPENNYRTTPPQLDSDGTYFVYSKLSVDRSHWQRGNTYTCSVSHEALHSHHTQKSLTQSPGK
mAb ZTS-361, sequence (as listed by the source): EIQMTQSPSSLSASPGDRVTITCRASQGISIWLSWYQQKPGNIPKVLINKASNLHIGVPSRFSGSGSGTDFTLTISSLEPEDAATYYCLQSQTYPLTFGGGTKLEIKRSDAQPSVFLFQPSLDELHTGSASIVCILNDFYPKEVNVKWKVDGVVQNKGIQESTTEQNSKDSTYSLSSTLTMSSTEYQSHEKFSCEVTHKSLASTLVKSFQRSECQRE
full length equine IL-31, sequence (as listed by the source): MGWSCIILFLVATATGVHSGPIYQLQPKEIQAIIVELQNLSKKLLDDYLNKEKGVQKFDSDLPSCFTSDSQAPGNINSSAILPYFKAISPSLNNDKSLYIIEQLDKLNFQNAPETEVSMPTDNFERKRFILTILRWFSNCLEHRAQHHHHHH

constrained feline IL-31 15H05 mimotope, N-AKVSMPADNFERKNFILT-C plus N and C terminal Cysteines, mT2a (CAKVSMPADNFERKNFILTC; also: constrained via terminal cysteines, mode not given here) [ZTS-563]
feline antibody titers to full length feline IL-31 (full length feline IL-31): modest response | IC50, conjugated peptide (mAb ZTS-361; CRM197 conjugated, co-incubated 1 hour with 0.2 μM mAb ZTS-361, FCWF-4 cells): 3.384 mg/L | decline of potency following conjugation (mAb ZTS-361; conjugated vs unconjugated): approximately 3 fold

B1: feline IL-31 CRM: CRM-197 conjugated feline IL-31 (SEQ ID NO: 159; Feline_IL-31_E_coli), control group T02 (conjugate)
chain: MRGSHHHHHHGSSHMAPAHRLQPSDIRKIILELRPMSKGLLQDYLKKEIGLPESNHSSLPCLSSDSQLPHINGSAILPYFRAIRPLSDKNTIDKIIEQLDKLKFQREPEAKVSMPADNFERKNFILAVLQQFSACLEHVLQSLNSGPQ
modifications: conjugated to CRM-197 carrier; Amino acid sequence representing feline IL-31 protein with N-terminal His tag
canine antibody titers to full length canine IL-31 (full length canine IL-31): transient CRAR | canine antibody titers (CRAR) to full length equine IL-31 (full length equine IL-31): negligible | canine antibody titers (CRAR) to full length human IL-31 (full length human IL-31): minor | canine antibody titers to full length feline IL-31 [1]: moderate and sustained antibody response

B2: canine IL-31: recombinant canine IL-31 protein (SEQ ID NO: 155) produced in CHO cells (protein, listed as Canis familiaris)
chain: MLSHTGPSRFALFLLCSMETLLSSHMAPTHQLPPSDVRKIILELQPLSRGLLEDYQKKETGVPESNRTLLLCLTSDSQPPRLNSSAILPYFRAIRPLSDKNIIDKIIEQLDKLKFQHEPETEISVPADTFECKSFILTILQQFSACLESVFKSLNSGPQ
stability, proteolysis ([2]; PBS, several days at 4° C.): no proteolysis was observed | stability, precipitation ([2]; following dialysis into PBS): No precipitation was observed | peak plasma levels, maximum [3]: about 30 ng/ml
